Reference: patent US8604172B2, “Humanized antibody compositions and methods for binding lysophosphatidic acid” (Lpath, Inc., priority 2009, dated 2013)
Marks after values point to notes of the source that are not given here.

Assays:
IL-8 in Caki-1 cells = test: LPA-induced IL-8 production in Caki-1 cells; type: cell-based, human; details: 18:1 LPA (0.2 mM), 0.1-30 μg/mL mAb, 24 h
Procedure: Three anti-LPA mAbs (B3, B7 and B58) were tested for their abilities to reduce in vitro IL-8 production compared to a non-specific antibody (NS). Caki-1 cells were seeded in 96 well plates and grown to confluency. After overnight serum starvation, cells were treated with 18:1 LPA (0.2 mM) with or without anti-LPA mAb B3, B7, B58 or NS (Non-Specific). After 24 h, cultured supernatants of renal cancer cells (Caki-1), treated with or without LPA and in presence of increasing concentrations of the anti-LPA mAbs B3, B7 and B58, were collected and analyzed for IL-8 levels using a commercially available ELISA kit (Human Quantikine Kit, R&D Systems, Minneapolis, Minn.). […] The inhibition of IL-8 release by the anti-LPA mAbs was also observed in other cancerous cell lines such as the pancreatic cell line Panc-1.

[1] = tested on: selected human cancer cell lines; test: LPA-induced cancer cell proliferation; type: cell-based; details: addition of anti-LPA mAb
Procedure: LPA is a potent growth factor supporting cell survival and proliferation by stimulation of Gi, Gq and G12/13 via GPCR-receptors and activation of downstream signaling events. Cell lines were tested for their proliferative response to LPA ([…]). Cell proliferation was assayed by using the cell proliferation assay kit from Chemicon (Temecula Calif.) (Panc-1) and the Cell-Blue titer from Pierce (Caki-1). Each data point is the mean of three independent experiments. […] Even though tumor-derived cells normally have high basal levels of proliferation, LPA appears to further augment proliferation in most tumor cell lines. Anti-LPA mAbs (B7 and B58) were assessed for the ability to inhibit LPA-induced proliferation in selected human cancer cell lines.

[2] = tested on: microblood vessel density in matrigel plugs; test: Matrigel plug assay (VEGF/bFGF), CD31 microvessel density; type: in vivo, C57BL/6 mice; details: for Percent Inhibition: vs control
Procedure: Female C57BL/6 mice around 8 to 10-weeks old and Matrigel Matrix High Concentration purchased from BD BioSciences (Franklin Lakes, N.J. (from BD) mixed with 50 ng/ml VEGF and 50 ng/ml bFGF, heparin 3 ng/ml as angiogenic stimuli were used for this study. There were five groups of mice, 10 Matrigel plugs were inoculated into five mice for each group on Day 0. One mouse group served as a control; four others receive drug treatment in four different doses by ip injection every other day. All treatments start at Day-1 and finish at Day 8.
Thirty C57bl/6 mice were implanted with Matrigel plugs in order to obtain 25 healthy mice with two well-shaped Matrigel plugs per mouse. On Day 0, 500 ul Matrigel at […] was subcutaneously injected to each side of the mouse, injection area was shaved. To increase the contact area of injected Matrigel into subcutaneous tissues and form a round shape plug, a wide subcutaneous pocket was formed by swaying the needlepoint right and left after a routine subcutaneous insertion. The injection was done rapidly with an appropriate size needle (21G-25G) to ensure the entire content was delivered in one plug. The injected Matrigel rapidly formed a single solid gel plug.
Animals were treated with 8 or 2 mg/kg of antibody or saline beginning 1 day prior to the implantation of Matrigel plugs or with the vehicle. Treatments were administered ip, on a q2d schedule.
Plugs from each group were collected at Day 12. The mice were euthanized and mouse skin was pulled back to expose the plug. The plugs was dissected out and fixed for histological analysis. Sections of 5 μm from paraffin-embedded plugs were stained with anti-CD-31 antibodies. Blood vessel density in a cross sectional area of each Matrigel plugs were analyzed. For each treatment group, at least six or more Matrigel plugs were quantitatively analyzed to assess any statistical significant difference of microvessel density between groups.

[3] = tested on: IL-8 release in SKOV3 cells; test: LPA-induced IL-8 release in SKOV3 cells; type: cell-based, human
Procedure: (§1) Anti-LPA antibodies inhibit the LPA-dependant release of human CXCL8/IL-8 in conditioned media of SKOV3 ovarian cells. SKOV3 cells (Lot No 4255558, passage 14) were harvested with 2 ml of 1× Trypsin EDTA (Mediatech Inc, Cat. No 25-053-CV) and resuspended in 8 ml of complete medium (10% FBS, Mediatech Inc. Cat. no 35-011-CV). The cells were centrifuged for 5 min ([…]) and re-suspended in 5 ml of complete medium. Cells were counted in duplicate with 0.4% Trypan blue (10 ul cells plus 90 ul Trypan blue, Invitrogen, Cat. No 15250-061) using a hemocytometer. In a 96-well plate, 1×10^5 cells per well were seeded (final volume 100 ul/well). The cells were allowed to attach and form a confluent monolayer by incubating overnight at 37° C. On the following day, cells were gently washed two times with minimum media (1 mg/ml BSA in McCoy's medium with L-glutamine, Mediatech, Cat. No 10-050-CV). The media was adjusted to 1% penicillin/streptomycin (Mediatech, Cat. No 30-002 CI) and 2.2 g/L sodium-bicarbonate (Mediatech, Cat. No 25-035-CI). Next, the cells were serum-starved at 37° C. for exactly 24 h, followed by cytokine stimulation with 1 uM C18:1 LPA (Avanti, Cat. No 857130) dissolved in 1 mg/ml BSA/PBS (Calbiochem, Cat. No 126575) which was pre-incubated in presence or absence of humanized LPA antibody LT3015 (150, 300 or 600 ug/mL) for one hour. Treatments were then added to the cells. After 22 h of cytokine stimulation, the cells were centrifuged for 5 min (13,500 rpm) at 4° C. and the supernatants (cell-conditioned media) were collected. The CXCL8/IL-8 levels in each supernatant were measured using the Quantikine human CXCL8/IL-8 ELISA kit according to vendor instructions (R&D Systems, Minneapolis Minn., Cat. No D8000C). The IL-6 levels were measured by ELISA using the Quantikine human IL-6 immunoassay kit (R&D systems, Cat. No. D6050). Data were analyzed by one-way ANOVA followed by Bonferroni's post test and expressed as human IL-8 or human IL-6 fold increase.

[4] = tested on: IL-6 release in SKOV3 cells; test: LPA-induced IL-6 release in SKOV3 cells; type: cell-based, human; details: Lpathomab 600 μg/mL; 1 μM 18:1 LPA; n = 3
Procedure: as §1, with “The media was adjusted to 1% penicillin/streptomycin (Mediatech, Cat. No 30-002 CI) and 2.2 g/L sodium-bicarbonate (Mediatech, Cat. No 25-035-CI). Next, the cells were serum-starved at 37° C. for exactly 24 h, followed by cytokine stimulation with 1 uM C18:1 LPA (Avanti, Cat. No 857130) dissolved in 1 mg/ml BSA/PBS (Calbiochem, Cat. No 126575) which was pre-incubated in presence or absence of humanized LPA antibody LT3015 (150, 300 or 600 ug/mL) for one hour. Treatments were then added to the cells. After 22 h of cytokine stimulation, the cells were centrifuged for 5 min (13,500 rpm) at 4° C. and the supernatants (cell-conditioned media) were collected.” left out

B1: LT3000: Murine anti-LPA monoclonal antibody clone B7, IgG1k, renamed Lpathomab, also known as LT3000; hybridoma 504B7.1, ATCC PTA-8420 (antibody, V domains shown)
VH: QVQLQQSGAELVRPGTSVKVSCKASGYGFINYLIEWIKQRPGQGLEWIGLINPGSDYTNYNENFKGKATLTADKSSSTAYMHLSSLTSEDSAVYFCARRFGYYGSGNYFDYWGQGTTLTVSS
VL: DVVMTQTPLSLPVSLGDQASISCTSGQSLVHINGNTYLHWYLQKPGQSPKLLIYKVSNLFSGVPDRFSGSGSGTDFTLKISRVEAEDLGVYFCSQSTHFPFTFGTGTKLEIK
IL-8 expression (IL-8 in Caki-1 cells): significantly reduced in a dose-dependent manner | LPA-induced increase in proliferation [1]: mitigated | microblood vessel density, Average ([2]; 2 mg/kg ip q2d): 34 | Percent Inhibition ([2]; 2 mg/kg ip q2d): 47.0% | microblood vessel density, Average ([2]; 8 mg/kg ip q2d): 41.5 | Percent Inhibition ([2]; 8 mg/kg ip q2d): 35.4% | IL-8 Release, % Inhibition (over LPA taken as 100) ([3]; Lpathomab 300 μg/mL, 1 μM 18:1 LPA, n = 3): 20% | IL-8 release from ovarian cancer cells ([3]; in vitro): reduced IL-8 release from ovarian cancer cells in a concentration-dependent manner | IL-6 Release, % Inhibition (over LPA taken as 100) [4]: 23* %
